Experiment [1] concerns the target mouse GCGR (full-length, on HEK293 reporter cells) (mouse) (UniProt Q61606). Briefly: cell-based or functional assay.
Experiment [2] deals with rat GCGR (full-length, on transiently transfected HEK293 reporter cells) (rat) (UniProt P30082). Briefly: cell-based or functional assay.
rat GCGR (full-length, on transiently transfected HEK293 reporter cells) (rat), sequence (P30082 27-485 limits assumed): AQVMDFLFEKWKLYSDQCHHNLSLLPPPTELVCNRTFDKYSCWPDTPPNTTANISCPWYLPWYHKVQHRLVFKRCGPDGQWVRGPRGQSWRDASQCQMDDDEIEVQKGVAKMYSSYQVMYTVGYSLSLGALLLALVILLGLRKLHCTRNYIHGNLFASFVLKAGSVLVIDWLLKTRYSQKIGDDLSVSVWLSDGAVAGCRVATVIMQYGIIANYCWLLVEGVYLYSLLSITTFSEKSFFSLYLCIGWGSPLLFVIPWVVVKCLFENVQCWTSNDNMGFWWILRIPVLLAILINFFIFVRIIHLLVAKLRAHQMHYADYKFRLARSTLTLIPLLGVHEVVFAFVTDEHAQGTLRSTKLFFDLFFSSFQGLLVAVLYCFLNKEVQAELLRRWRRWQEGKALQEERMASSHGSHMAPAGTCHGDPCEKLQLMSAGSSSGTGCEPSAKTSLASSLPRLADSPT

mouse GCGR (full-length, on HEK293 reporter cells) (mouse), sequence (Q61606 27-485 limits assumed): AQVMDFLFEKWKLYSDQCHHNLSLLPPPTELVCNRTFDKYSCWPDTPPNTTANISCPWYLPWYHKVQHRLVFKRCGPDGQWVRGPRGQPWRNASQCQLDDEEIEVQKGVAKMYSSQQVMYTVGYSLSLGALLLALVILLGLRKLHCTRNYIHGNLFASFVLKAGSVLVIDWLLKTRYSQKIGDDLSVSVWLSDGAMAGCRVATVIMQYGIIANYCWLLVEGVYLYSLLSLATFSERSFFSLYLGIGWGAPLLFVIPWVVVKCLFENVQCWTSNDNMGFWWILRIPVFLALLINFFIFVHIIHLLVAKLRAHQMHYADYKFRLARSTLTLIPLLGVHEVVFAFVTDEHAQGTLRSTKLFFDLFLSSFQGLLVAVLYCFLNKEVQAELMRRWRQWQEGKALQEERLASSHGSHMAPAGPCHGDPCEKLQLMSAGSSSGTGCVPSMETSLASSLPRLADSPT

In turn, “glucagon (GCG) (from UniProt P01275 53-81) (ligand)” returned an EC50, luciferase activity in HEK293/mGCGR reporter cells in experiment [1] of 0.083 nM. This substance also showed an EC50, luciferase activity in HEK293 reporter cells transfected with rat GCGR in experiment [2] of 0.252 nM.

For the origin of these results see patent publication US20130251728A1.
